Here are results for 1 molecule from paper doi:10.1101/359182, “Capturing auxin response factors syntax using DNA binding models”.

The target of the data set is T1, MP (ARF5/Monopteros) (UniProt P93024 1-902).
T1 sequence: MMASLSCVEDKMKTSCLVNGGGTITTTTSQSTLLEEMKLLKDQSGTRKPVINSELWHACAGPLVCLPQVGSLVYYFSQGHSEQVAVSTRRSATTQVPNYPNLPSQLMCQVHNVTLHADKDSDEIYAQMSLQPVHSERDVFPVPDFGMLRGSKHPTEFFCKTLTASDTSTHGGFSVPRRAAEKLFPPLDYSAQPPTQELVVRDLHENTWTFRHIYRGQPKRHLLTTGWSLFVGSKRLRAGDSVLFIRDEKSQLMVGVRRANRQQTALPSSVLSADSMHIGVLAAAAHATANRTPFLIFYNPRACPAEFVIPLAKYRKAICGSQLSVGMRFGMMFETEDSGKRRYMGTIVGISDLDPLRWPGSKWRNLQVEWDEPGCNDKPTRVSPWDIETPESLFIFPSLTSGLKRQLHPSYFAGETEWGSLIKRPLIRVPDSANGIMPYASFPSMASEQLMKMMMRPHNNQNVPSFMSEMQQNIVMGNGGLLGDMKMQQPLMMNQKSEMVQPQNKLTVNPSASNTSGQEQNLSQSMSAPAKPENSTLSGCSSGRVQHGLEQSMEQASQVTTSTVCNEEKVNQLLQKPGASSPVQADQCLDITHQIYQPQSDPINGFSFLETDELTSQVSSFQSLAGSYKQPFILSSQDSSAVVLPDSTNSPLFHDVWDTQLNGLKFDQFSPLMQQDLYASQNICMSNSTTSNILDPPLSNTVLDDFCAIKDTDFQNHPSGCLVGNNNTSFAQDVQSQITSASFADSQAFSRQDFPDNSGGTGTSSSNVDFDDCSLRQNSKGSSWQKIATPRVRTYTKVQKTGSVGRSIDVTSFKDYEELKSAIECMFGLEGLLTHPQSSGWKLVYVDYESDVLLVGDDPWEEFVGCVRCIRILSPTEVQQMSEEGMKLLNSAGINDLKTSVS
Briefly: EMSA; EMSA: 25 mM HEPES pH 7.4, 1 mM EDTA, 2 mM MgCl2, 100 mM KCl, 10% glycerol, 1 mM DTT, 0.5 mM PMSF, 0.1% Triton, 0.045 mg/ml salmon/herring DNA, 20 nM probe, protein 0-500 nM, 1 h at 4 C, 2% agarose in 0.5x TBE. Particulars: protein: recombinant; tags: N-terminal His-MBP-His; label: Cy5-dCTP, Klenow fill-in opposite 5' G; blunt after fill-in of 5' G overhang. On the technique in general: A gel shift assay detects complexes by their altered migration in electrophoresis.

B1: IR13 (dsDNA)
DNA 1: GATGCAGCCGACAAAACACATGATTTTGTCGGCTCACAT
DNA 2: ATGTGAGCCGACAAAATCATGTGTTTTGTCGGCTGCATC
In the case of B1, the binding result is listed as “binds”.
